Earlier results, collected in paper PMC3871196.

Target: Calmodulin (UniProt P0DP23)

Kd: 320 nM
Substance: Peripherin/rds PerCter C-terminal domain (from UniProt P17810)
